Experimental data: US20030092616A1, “STAT6 activation gene” (priority 2001, published 2003)

System: STAT6
Assay: Screening of full-length cDNA clones for promotion of STAT6 activation (luciferase reporter N4×8-luc)
Type: cell-based
Details: NIH3T3 cells cotransfected with N4×8-luc reporter and cDNA plasmid; 48 h culture, then mouse IL-4 0.5 ng/ml for 6 h
Outline: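 NIH3T3 cells cotransfected with STAT6-responsive N4×8-luc reporter (100 ng) and full-length cDNA, cultured 48 h, then given mouse IL-4 at 0.5 ng/ml final for 6 h. Luciferase activity compared with reporter plus null-vector control.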

Row | Molecule | Activity = (luciferase activity of the gene of each SEQ ID NO:)/(luciferase activity of pME18S-FL3)
1 | 345 (nucleic acid, listed as Homo sapiens, CDS (19)..(768)) CCAGCCAACGAGCGGAAAATGGCAGACAATTTTTCGCTCCATGATGCGTTATCTGGGTCTGGAAACCCAAACCCTCAAGGATGGCCTGGCGCATGGGGGAACCAGCCTGCTGGGGCAGGGGGCTACCCAGGGGCTTCCTATCCTGGGGCCTACCCCGGGCAGGCACCCCCAGGGGCTTATCCTGGACAGGCACCTCCAGGCGCCTACCATGGAGCACCTGGAGCTTATCCCGGAGCACCTGCACCTGGAGTCTACCCAGGGCCACCCAGCGGCCCTGGGGCCTACCCATCTTCTGGACAGCCAAGTGCCCCCGGAGCCTACCCTGCCACTGGCCCCTATGGCGCCCCTGCTGGGCCACTGATTGTGCCTTATAACCTGCCTTTGCCTGGGGGAGTGGTGCCTCGCATGCTGATAACAATTCTGGGCACGGTGAAGCCCAATGCAAACAGAATTGCTTTAGATTTCCAAAGAGGGAATGATGTTGCCTTCCACTTTAACCCACGCTTCAATGAGAACAACAGGAGAGTCATTGTTTGCAATACAAAGCTGGATAATAACTGGGGAAGGGAAGAAAGACAGTCGGTTTTCCCATTTGAAAGTGGGAAACCATTCAAAATACAAGTACTGGTTGAACCTGACCACTTCAAGGTTGCAGTGAATGATGCTCACTTGTTGCAGTACAATCATCGGGTTAAAAAACTCAATGAAATCAGCAAACTGGGAATTTCTGGTGACATAGACCTCACCAGTGCTTCATATACCATGATATAATCTGAAAGGGGCAGATTAAAAAAAAAAAAAAAGAATCTAAACCTTACATGTGTAAAGGTTTCATGTTCACTGTGAGTGAAAATTTTTACATTCATCAATATCCCTCTTGTAAGTCATCTACTTAATAAATATTACAGTGAAAG | 3.7
2 | 327 (nucleic acid, listed as Homo sapiens, CDS (72)..(1046)) TGTCGACGCCGCTGCCACCGCCTGCCTGAGAGAAGTCGTCGCGGCCGACCCCGTCGCCTCCGCCGGCTACCATGTCCGCCCAGGCGCAGATGCGGGCCCTGCTGGACCAGCTCATGGGCACGGCTCGGGACGGAGACGAAACCAGACAAAGGGTCAAGTTTACAGATGACCGTGTCTGCAAGAGTCACCTTCTGGACTGCTGCCCCCATGACATCCTGGCTGGGACGCGCATGGATTTAGGAGAATGTACCAAAATCCACGACTTGGCCCTCCGAGCAGATTATGAGATTGCAAGTAAAGAAAGAGACCTGTTTTTTGAATTAGATGCAATGGATCACTTGGAGTCCTTTATTGCTGAATGTGATCGGAGAACTGAGCTCGCCAAGAAGCGGCTGGCAGAAACACAGGAGGAAATCAGTGCGGAAGTTTCTGCAAAGGCAGAAAAAGTACATGAGTTAAATGAAGAAATAGGAAAACTCCTTGCTAAAGCCGAACAGCTAGGGGCTGAAGGTAATGTGGATGAATCCCAGAAGATTCTTATGGAAGTGGAAAAAGTTCGTGCGAAGAAAAAAGAAGCTGAGGAAGAATACAGAAATTCCATGCCTGCATCCAGTTTTCAGCAGCAAAAGCTGCGTGTCTGCGAGGTCTGTTCAGCCTACCTTGGTCTCCATGACAATGACCGTCGCCTGGCAGACCACTTCGGTGGCAAGTTACACTTGGGGTTCATTCAGATCCGAGAGAAGCTTGATCAGTTGAGGAAAACTGTCGCTGAAAAGCAGGAGAAGAGAAATCAGGATCGCTTGAGGAGGAGAGAGGAGAGGGAACGGGAGGAGCGTCTGAGCAGGAGGTCGGGATCAAGAACCAGAGATCGCAGGAGGTCACGCTCCCGGGATCGGCGTCGGAGGCGGTCAAGATCTACCTCCCGAGAGCGACGGAAATTGTCCCGGTCCCGGTCCCGAGATAGACATCGGCGCCACCGCAGCCGTTCCCGGAGCCACAGCCGGGGACATCGTCGGGCTTCCCGGGACCGAAGTGCGAAATACAAGTAACTACTCTGACTCCTTCGGTAGCTGCAACCAGGGGTTCTCCAGAGAGCGGGCATCCAGAGAGGAGTCCTGGGAGAGCGGGCGGAGCGAGCGAGGGCCCCCGGACTGGAGGCTTGAGAGCTCCAACGGGAAGATGGCTTCACGGAGGTCAGAAGAGAAGGAGGCCGGCGAGATCTGAACCCGTCTCCCGGGTGCTGTAAATAGTCTGATAAACGTTCACACAGTCTAAAATTACCCTTTATATTTGCTGAATACAACTCATCTTTTGTAGTTTAAAATTTCTATTGTTTTGGAGCTAGCTGTGAGTTTCTAGAAGTGTACAGAGTTGCTCCTGTGTTCCCGGGTCATGTTGAGTAGGAATAAATAAATCTGATGCTGCCTCCTGAGGCTGCGGGGGGTTTCTGC | 5.3
3 | 349 (nucleic acid, listed as Homo sapiens, CDS (95)..(610)) CCCCCCCGAGCGCCGCTCCGGCTGCACCGCGCTCGCTCCGAGTTTCAGGCTCGTGCTAAGCTAGCGCCGTCGTCGTCTCCCTTCAGTCGCCATCATGATTATCTACCGGGACCTCATCAGCCACGATGAGATGTTCTCCGACATCTACAAGATCCGGGAGATCGCGGACGGGTTGTGCCTGGAGGTGGAGGGGAAGATGGTCAGTAGGACAGAAGGTAACATTGATGACTCGCTCATTGGTGGAAATGCCTCCGCTGAAGGCCCCGAGGGCGAAGGTACCGAAAGCACAGTAATCACTGGTGTCGATATTGTCATGAACCATCACCTGCAGGAAACAAGTTTCACAAAAGAAGCCTACAAGAAGTACATCAAAGATTACATGAAATCAATCAAAGGGAAACTTGAAGAACAGAGACCAGAAAGAGTAAAACCTTTTATGACAGGGGCTGCAGAACAAATCAAGCACATCCTTGCTAATTTCAAAAACTACCAGTTCTTTATTGGTGAAAACATGAATCCAGATGGCATGGTTGCTCTATTGGACTACCGTGAGGATGGTGTGACCCCATATATGATTTTCTTTAAGGATGGTTTAGAAATGGAAAAATGTTAACAAATGTGGCAATTATTTTGGATCTATCACCTGTCATCATAACTGGCTTCTGCTTGTCATCCACACAACACCAGGACTTAAGACAAATGGGACTGATGTCATCTTGAGCTCTTCATTTATTTTGACTGTGATTTATTTGGAGTGGAGGCATTGTTTTTAAGAAAAACATGTCATGTAGGTTGTCTAAAAATAAAATGCATTTAAACTCATTTGAGAG | 24.3
4 | 85 (nucleic acid, listed as Homo sapiens, CDS (33)..(1409)) ATTTCCGGTTCCGGCTGCGGGCCGGTGAAGATATGGCGGCGTCTGCGTCTGCAGCTGCAGGGGAGGAGGACTGGGTCCTTCCCTCTGAAGTTGAAGTATTGGAGTCCATCTATCTAGATGAACTACAGGTGATTAAAGGAAATGGCAGAACTTCACCATGGGAGATCTACATCACTTTGCATCCTGCCACTGCAGAGGACCAGGATTCACAGTATGTCTGCTTCACTCTGGTGCTTCAGGTCCCAGCAGAGTATCCCCATGAGGTGCCACAGATCTCTATCCGAAATCCCCGAGGACTTTCAGATGAACAGATCCACACGATCTTACAGGTGCTGGGCCACGTGGCCAAGGCTGGGCTGGGCACTGCCATGCTGTATGAACTCATTGAGAAAGGGAAGGAAATTCTCACAGATAACAACATCCCTCATGGCCAGTGTGTCATCTGCCTCTATGGTTTCCAGGAGAAGGAGGCCTTTACCAAAACACCCTGTTACCACTACTTCCACTGCCACTGCCTTGCTCGGTACATCCAGCACATGGAGCAAGAGCTGAAGGCACAAGGACAGGAGCAGGAACAGGAACGGCAGCATGCTACAACCAAACAGAAGGCAGTCGGTGTGCAGTGTCCAGTGTGCAGAGAGCCCCTCGTGTATGATCTTGCCTCACTGAAAGCAGCCCCTGAACCCCAACAGCCCATGGAGCTGTACCAGCCCAGTGCAGAGAGCTTGCGCCAGCAAGAAGAACGCAAGCGGCTCTACCAGAGGCAGCAGGAGCGGGGGGGAATCATTGACCTTGAGGCTGAGCGAAACCGATACTTCATCAGCCTTCAGCAGCCTCCTGCCCCTGCGGAACCTGAGTCAGCTGTAGATGTCTCCAAAGGATCCCAACCACCCAGCACCCTTGCAGCAGAACTATCCACCTCACCAGCCGTCCAATCCACTTTGCCACCTCCTCTGCCTGTGGCGACCCAGCACATATGTGAGAAGATTCCAGGGACCAGGTCAAATCAGCAAAGGTTGGGCGAAACCCAGAAAGCTATGCTAGATCCCCCCAAGCCCAGTCGAGGTCCCTGGCGACAGCCCGAACGGAGGCACCCAAAGGGAGGGGAGTGCCACGCCCCTAAAGGTACCCGTGACACCCAGGAACTGCCACCTCCTGAGGGGCCCCTCAAGGAGCCCATGGACCTAAAGCCAGAACCCCATAGCCAAGGAGTTGAAGGTCCTCCACAAGAGAAGGGGCCTGGCAGCTGGCAGGGGCCCCCACCCCGCAGGACTCGGGACTGTGTTCGCTGGGAGCGCTCTAAGGGCCGGACACCCGGTTCTTCCTACCCTCGCCTGCCTCGGGGCCAGGGAGCATACCGGCCTGGTACTCGGAGGGAGTCCCTGGGCCTGGAATCTAAGGATGGTTCCTAGCAGGACTTGGTGGGGGGAACAGGGAATTGGGGATGGGAGGGAGGCAATAAAGATATTTGGCCTTCTTTGGCTTTCTTTGCTT | 11.5
5 | 89 (nucleic acid, listed as Homo sapiens, CDS (22)..(834)) GTAGTGCGGCGCTGTTTAAAGATGGCGGCGGAGGAACCTCAGCAGCAGAAGCAGGAGCCGCTGGGCAGCGACTCCGAAGGTGTTAACTGTCTGGCCTATGATGAAGCCATCATGGCTCAGCAGGACCGAATTCAGCAAGAGATTGCTGTGCAGAACCCTCTGGTGTCAGAGCGGCTGGAGCTCTCGGTCCTATACAAGGAGTATGCTGAAGATGACAACATCTATCAACAGAAGATCAAGGACCTCCACAAAAAGTACTCGTACATCCGCAAGACCAGGCCTGACGGCAACTGTTTCTATCGGGCTTTCGGATTCTCCCACTTGGAGGCACTGCTGGATGACAGCAAGGAGTTGCAGCGGTTCAAGGCTGTGTCTGCCAAGAGCAAGGAAGACCTGGTGTCCCAGGGCTTCACTGAATTCACAATTGAGGATTTCCACAACACGTTCATGGACCTGATTGAGCAGGTGGAGAAGCAGACCTCTGTCGCCGACCTGCTGGCCTCCTTCAATGACCAGAGCACCTCCGACTACCTTGTGGTCTACCTGCGGCTGCTCACCTCGGGCTACCTGCAGCGCGAGAGCAAGTTCTTCGAGCACTTCATCGAGGGTGGACGGACTGTCAAGGAGTTCTGCCAGCAGGAGGTGGAGCCCATGTGCAAGGAGAGCGACCACATCCACATCATTGCGCTGGCCCAGGCCCTCAGCGTATCCATCCAGGTGGAGTACATGGACCGCGGCGAGGGCGGCACCACCAATCCGCACATCTTCCCTGAGGGCTCCGAGCCCAAGGTCTACCTTCTCTACCGGCCTGGACACTACGATATCCTCTACAAATAGGGCTGGCTCCAGCCCGCTGCTGCCCTGCTGCCCCCCTCTGCCAGGCGCTAGACATGTACAGAGGTTTTTCTGTGGTTGTAAATGGTCCTATTTCACCCCCTTCTTCCTGTCACATGACCCCCCCCCATGTTTTATTAAAGGGGGTGCTGGTGGTG | 10.2
